Data from publication PMC10946055.

Columns and labels:
Assay in all cases: MST
XPA DBD F112C = XPA DBD F112C (Homo sapiens, UniProt P23025 98-239, F112C)
XPA DBD D114Y = XPA DBD D114Y (Homo sapiens, UniProt P23025 98-239, D114Y)
XPA DBD R130I = XPA DBD R130I (Homo sapiens, UniProt P23025 98-239, R130I)
XPA DBD M113I = XPA DBD M113I (Homo sapiens, UniProt P23025 98-239, M113I)
XPA DBD WT = XPA DBD WT (Homo sapiens, UniProt P23025 98-239)
XPA DBD Y148D = XPA DBD Y148D (Homo sapiens, UniProt P23025 98-239, Y148D)
XPA DBD Y148D, sequence (P23025 98-239 Y148D): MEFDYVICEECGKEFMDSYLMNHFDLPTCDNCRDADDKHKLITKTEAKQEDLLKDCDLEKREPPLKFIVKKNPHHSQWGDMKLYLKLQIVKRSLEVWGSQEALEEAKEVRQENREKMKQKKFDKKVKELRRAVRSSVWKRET

XPA DBD WT, sequence (P23025 98-239): as the sequence (P23025 98-239 Y148D) above, with D51Y counted along it
XPA DBD D114Y, sequence (P23025 98-239 D114Y): as the sequence (P23025 98-239 Y148D) above, with D17Y, D51Y counted along it
XPA DBD F112C, sequence (P23025 98-239 F112C): as the sequence (P23025 98-239 Y148D) above, with F15C, D51Y counted along it
XPA DBD M113I, sequence (P23025 98-239 M113I): as the sequence (P23025 98-239 Y148D) above, with M16I, D51Y counted along it
XPA DBD R130I, sequence (P23025 98-239 R130I): as the sequence (P23025 98-239 Y148D) above, with R33I, D51Y counted along it

For TTTTGCGGCCGCTTTTGCGGCCGC (structured_DNA) [NER junction mimic hairpin, 8 bp with 4 nt overhang], the Kd (XPA DBD F112C) was 9.2 ± 2.2 µM, the Kd (XPA DBD D114Y) was 8.8 ± 1.7 µM and the Kd (XPA DBD R130I) was 38 ± 22 µM. For the same binder, the Kd (XPA DBD M113I) was 12 ± 1.9 µM, the Kd (XPA DBD WT) was 7.7 ± 3.7 µM and the binding result (XPA DBD Y148D) was “no binding”.
